# Measured values from the Human Domainome abundance scans (Beltran et al. 2025).
# ± gives the uncertainty stated by the source.
# B1: Retinoic acid receptor beta, residues 85 to 161; numbered along this chain, P10826 (parent)
# chain: YKPCFVCQDKSSGYHYGVSACEGCKGFFRRSIQKNMIYTCHRDKNCVINKVTRNRCQYCRLQKCFEVGMSKESVRND
# B2: Dynamin-binding protein, residues 242 to 304; numbered along this chain, Q6XZF7 (parent)
# chain: EEPGTYGVALYRFQALEPNELDFEVGDKIRILATLEDGWLEGSLKGRTGIFPYRFVKLCPDTR
# Variants of: B1
# Assay: abundance fitness (aPCA) (normalised: wild type 0, dead -1); higher = more abundant; growth selection in yeast, the domain comes from the species named
# Conditions: Homo sapiens
row,Variant,abundance fitness
1,YKPCFVCQDKSSGYHYGVSACEGCKGFFRRSIQKNMIYTCHRDKNCVINKVTRNRCQYCRLQKCFEVGMSKESVRSD [N76S],0.148 ± 0.053
2,YKPCFVCQDKSSGYHYGVSACEGCKGFFRRSIQKNMIYTCHRDKNCVINKVTRNRCQYCRLQKCFEVGMSKESVRTD [N76T],-0.15 ± 0.088
3,YKPCFVCQDKSSGYHYGVSACEGCKGFFRRSIQKNMIYTCHRDKNCVINKVTRNRCQYCRLQKCFEVGMSKESVRVD [N76V],0.047 ± 0.054
4,YKPCFVCQDKSSGYHYGVSACEGCKGFFRRSIQKNMIYTCHRDKNCVINKVTRNRCQYCRLQKCFEVGMSKESVRYD [N76Y],0.046 ± 0.1
5,YKPCFVCQDKSSGYHYGVSACEGCKGFFRRSIQKNMIYTCHRDKNCVINKVTRNRCQYCRLQKCFEVGMSKESVRNA [D77A],-0.126 ± 0.063
6,YKPCFVCQDKSSGYHYGVSACEGCKGFFRRSIQKNMIYTCHRDKNCVINKVTRNRCQYCRLQKCFEVGMSKESVRNE [D77E],0.125 ± 0.073
7,YKPCFVCQDKSSGYHYGVSACEGCKGFFRRSIQKNMIYTCHRDKNCVINKVTRNRCQYCRLQKCFEVGMSKESVRNF [D77F],-0.183 ± 0.32
8,YKPCFVCQDKSSGYHYGVSACEGCKGFFRRSIQKNMIYTCHRDKNCVINKVTRNRCQYCRLQKCFEVGMSKESVRNH [D77H],0.087 ± 0.16
9,YKPCFVCQDKSSGYHYGVSACEGCKGFFRRSIQKNMIYTCHRDKNCVINKVTRNRCQYCRLQKCFEVGMSKESVRNI [D77I],-0.06 ± 0.11
10,YKPCFVCQDKSSGYHYGVSACEGCKGFFRRSIQKNMIYTCHRDKNCVINKVTRNRCQYCRLQKCFEVGMSKESVRNK [D77K],-0.082 ± 0.14
11,YKPCFVCQDKSSGYHYGVSACEGCKGFFRRSIQKNMIYTCHRDKNCVINKVTRNRCQYCRLQKCFEVGMSKESVRNL [D77L],-0.202 ± 0.073
12,YKPCFVCQDKSSGYHYGVSACEGCKGFFRRSIQKNMIYTCHRDKNCVINKVTRNRCQYCRLQKCFEVGMSKESVRNM [D77M],0.007 ± 0.084
13,YKPCFVCQDKSSGYHYGVSACEGCKGFFRRSIQKNMIYTCHRDKNCVINKVTRNRCQYCRLQKCFEVGMSKESVRNN [D77N],-0.333 ± 0.1
14,YKPCFVCQDKSSGYHYGVSACEGCKGFFRRSIQKNMIYTCHRDKNCVINKVTRNRCQYCRLQKCFEVGMSKESVRNP [D77P],0.096 ± 0.073
15,YKPCFVCQDKSSGYHYGVSACEGCKGFFRRSIQKNMIYTCHRDKNCVINKVTRNRCQYCRLQKCFEVGMSKESVRNQ [D77Q],0.066 ± 0.12
16,YKPCFVCQDKSSGYHYGVSACEGCKGFFRRSIQKNMIYTCHRDKNCVINKVTRNRCQYCRLQKCFEVGMSKESVRNR [D77R],-0.194 ± 0.053
17,YKPCFVCQDKSSGYHYGVSACEGCKGFFRRSIQKNMIYTCHRDKNCVINKVTRNRCQYCRLQKCFEVGMSKESVRNS [D77S],-0.093 ± 0.065
18,YKPCFVCQDKSSGYHYGVSACEGCKGFFRRSIQKNMIYTCHRDKNCVINKVTRNRCQYCRLQKCFEVGMSKESVRNT [D77T],-0.348 ± 0.12
19,YKPCFVCQDKSSGYHYGVSACEGCKGFFRRSIQKNMIYTCHRDKNCVINKVTRNRCQYCRLQKCFEVGMSKESVRNV [D77V],-0.054 ± 0.057
20,YKPCFVCQDKSSGYHYGVSACEGCKGFFRRSIQKNMIYTCHRDKNCVINKVTRNRCQYCRLQKCFEVGMSKESVRNW [D77W],-0.347 ± 0.086
21,YKPCFVCQDKSSGYHYGVSACEGCKGFFRRSIQKNMIYTCHRDKNCVINKVTRNRCQYCRLQKCFEVGMSKESVRNY [D77Y],0.044 ± 0.1

# Variants of: B2
# Assay: as above
# Conditions: Homo sapiens
row,Variant,abundance fitness
1,EEPGTYGVALYRFQALEPNELDFEVGDKIRILATLEDGWLEGSLKGRTGIFPYRFVKLCPDTH [R63H],0.065 ± 0.063
2,EEPGTYGVALYRFQALEPNELDFEVGDDIRILATLEDGWLEGSLKGRTGIFPYRFVKLCPDTR [K28D],-0.799 ± 0.15
3,EEPGTYGVQLYRFQALEPNELDFEVGDKIRILATLEDGWLEGSLKGRTGIFPYRFVKLCPDTR [A9Q],-0.821 ± 0.44
4,EEPGTYGVALYRFQALEPNEEDFEVGDKIRILATLEDGWLEGSLKGRTGIFPYRFVKLCPDTR [L21E],-0.643 ± 0.38
5,EEPGTYGVALYRFQALEPNELDFEVGDKIRILATLEDGWLEGSLKGRTGIFPYRFWKLCPDTR [V56W],-0.826 ± 0.33
6,EEPGTYGVALYRFQALEPNELDFEVGDKIRILATLNDGWLEGSLKGRTGIFPYRFVKLCPDTR [E36N],-0.156 ± 0.067
7,EEPGTYGVALYRFQALEPNELDFEVGDKIRILAILEDGWLEGSLKGRTGIFPYRFVKLCPDTR [T34I],-0.168 ± 0.062
8,EEPGTYGVALYRFQALEPNELDFEVGDKHRILATLEDGWLEGSLKGRTGIFPYRFVKLCPDTR [I29H],-0.634 ± 0.11
9,EEPGTYGVALYRFFALEPNELDFEVGDKIRILATLEDGWLEGSLKGRTGIFPYRFVKLCPDTR [Q14F],-0.413 ± 0.075
10,EEPGTYGVALYRFQALEPNELDFEVGDKIRILATLEDGWLEGSLKGRTGCFPYRFVKLCPDTR [I50C],-0.275 ± 0.055
11,EEPGTYGVALYRFQALEPNELDFEVGDKIRILATLEDGWLEGSLKGRTGIFPYRFPKLCPDTR [V56P],-0.334 ± 0.14
12,EEPGTYGVALYRFQALEPNELDFEVGDKIRILALLEDGWLEGSLKGRTGIFPYRFVKLCPDTR [T34L],-0.41 ± 0.071
13,EEPGTYGVRLYRFQALEPNELDFEVGDKIRILATLEDGWLEGSLKGRTGIFPYRFVKLCPDTR [A9R],-0.816 ± 0.11
14,EEPGTYGVALYRFQALEPNELDFEVGDKIRILATLCDGWLEGSLKGRTGIFPYRFVKLCPDTR [E36C],-0.434 ± 0.072
15,EEPGTYGVALYRFQALEPNELDFEVGDKIRILATLEDGWLEGSLKGKTGIFPYRFVKLCPDTR [R47K],0.115 ± 0.2
16,EEPGTYGVALYRFQALEPNELDFEVGDKIRILATLEDGWLEGSLKGRTGIFPYRFVKLCPITR [D61I],-0.237 ± 0.06
